Source: publication PMC7508890

How the values were obtained:
[1] = molecular target: recombinant hemagglutinin (HA) derived from A/Thailand/CU44/2006, wild type (influenza A virus A/Thailand/CU44/2006); experiment: SEC-MALS
[2] = molecular target: recombinant hemagglutinin (HA) derived from A/Thailand/CU44/2006, wild type (influenza A virus A/Thailand/CU44/2006); experiment: […]; 20 mM Tris-HCl pH 8.0, 100 mM NaCl

**Q.** Which stoichiometry N [1] does the source give for “recombinant hemagglutinin (HA) derived from A/Thailand/CU44/2006, wild type (natural protein)” here?
**A.** The stoichiometry N was 9 HA trimers.

**Q.** What about the stoichiometry N [2] of the same substance?
**A.** Its stoichiometry N is 3.
